According to patent US8058228B2, “Leptin peptide antagonists” (Boston Biomedical Research Institute, priority 2004, dated 2011):

Molecular target: T1, OB-R (Homo sapiens, UniProt P48357)
T1 construct: After confirming via Western that the primary EEC and ESC and endometrial cell lines utilized herein had OB-R; endogenous in cells; host or cells: primary human EEC and ESC; Ishikawa (ECACC 9832301) and HES cell lines
T1 sequence (P48357 22-1165): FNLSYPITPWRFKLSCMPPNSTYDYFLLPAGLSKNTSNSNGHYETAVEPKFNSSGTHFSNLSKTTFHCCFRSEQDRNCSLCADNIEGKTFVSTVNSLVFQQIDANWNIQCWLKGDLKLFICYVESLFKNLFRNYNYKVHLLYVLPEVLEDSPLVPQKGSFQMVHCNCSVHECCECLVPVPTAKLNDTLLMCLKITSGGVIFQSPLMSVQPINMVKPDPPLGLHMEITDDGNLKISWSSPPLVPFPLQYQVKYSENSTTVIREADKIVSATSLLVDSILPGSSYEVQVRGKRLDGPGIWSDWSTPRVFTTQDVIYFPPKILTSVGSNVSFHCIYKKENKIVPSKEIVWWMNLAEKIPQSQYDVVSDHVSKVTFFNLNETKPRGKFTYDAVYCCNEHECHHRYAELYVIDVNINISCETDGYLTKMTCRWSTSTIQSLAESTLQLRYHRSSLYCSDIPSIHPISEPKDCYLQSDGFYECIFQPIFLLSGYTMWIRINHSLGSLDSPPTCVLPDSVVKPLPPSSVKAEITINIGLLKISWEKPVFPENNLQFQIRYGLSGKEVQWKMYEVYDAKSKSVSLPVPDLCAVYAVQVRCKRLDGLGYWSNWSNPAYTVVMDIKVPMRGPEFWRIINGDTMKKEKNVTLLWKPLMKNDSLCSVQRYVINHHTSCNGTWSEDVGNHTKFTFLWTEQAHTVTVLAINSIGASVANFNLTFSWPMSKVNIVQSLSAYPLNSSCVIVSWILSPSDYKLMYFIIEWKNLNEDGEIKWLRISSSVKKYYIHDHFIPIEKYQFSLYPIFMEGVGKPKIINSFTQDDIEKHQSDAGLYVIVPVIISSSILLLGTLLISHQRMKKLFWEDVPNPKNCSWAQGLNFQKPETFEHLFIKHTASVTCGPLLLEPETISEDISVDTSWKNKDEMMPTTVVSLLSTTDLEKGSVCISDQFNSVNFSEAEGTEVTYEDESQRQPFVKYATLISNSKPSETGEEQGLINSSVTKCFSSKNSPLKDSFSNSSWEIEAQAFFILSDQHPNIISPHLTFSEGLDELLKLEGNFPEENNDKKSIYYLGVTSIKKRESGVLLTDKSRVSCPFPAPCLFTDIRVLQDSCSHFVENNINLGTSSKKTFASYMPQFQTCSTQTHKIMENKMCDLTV
Experiment: LIF levels in conditioned medium of human endometrial cells (ELISA)
Format: cell-based
Settings: for effect on leptin-induced LIF levels in conditioned medium: leptin 3 nM plus inhibitor or control
Description: Primary human endometrial cells (ESC and EEC) were cultured for 5-9 days in DMEM-F12 medium containing 5% fetal bovine serum (FBS), 5 μg/ml insulin, 1% amphopthericin B, 100 μg/ml streptomycin and 100 U/ml penicillin until they were 80% confluent. Two types of endometrial epithelial cell lines, HES (originally derived from a benign proliferative endometrium) and Ishikawa (human endometrial epithelial adenocarcinoma, ECACC 9832301, Wiltshire, England) were cultured under the same conditions described above. The cells were washed twice with 100 mM phosphate saline buffer (PBS), pH 7.2 and cultured for additional 2 days in the same medium but without FBS (basal medium). Cells were washed as described before and cultured in basal medium containing leptin (0, 3, 10 or 62 nM) or IL-1β (0.6, 3 and 10 nM).
The anti-OB-R antibody (10 and 20 μg/ml) and LPA-2, a specific inhibitor of OB-R (3, 120, 300 nM or 30 μM) were used to assess whether leptin-induced effects were regulated primarily by the OB-R. Non-specific species-matched IgGs to the OB-R antibody and a scrambled version of LPA-2 (LPA-2Sc) served as negative controls (Gonzalez and Leavis, Endocrine 21: 185-195 (2003)). Inhibitors of IL-1R were used (monoclonal antibody anti-IL-1R tl and IL-1Ra) to assess whether leptin activated IL-1 induced signaling pathways or just activated similar components responsible for LIF/LIF-R expression. Treatment with the cytokine, inhibitor or the two combined was implemented for 5, 15, 30 and 60 min, and 24 and 48 h. The cells were prepared for Western blot analysis. The conditioned media was collected, lyophilized and stored at −80° C. until analysis for LIF, IL-1β and IL-1Ra by ELISA could be performed. Duplicate wells were run for each treatment and the experiments repeated at least three times with different cell preparations.
Conditioned media from cells cultured under the experimental conditions described above were used to quantify the secretion of LIF, IL-1β and IL-1Ra by ELISA (Quantikine®, R&D Systems). The experiments were replicated three times and standards, controls, and samples were assayed in duplicate. Cytokine concentrations as determined by ELISA were within the range of the standard curve and were expressed in pg/ml/mg protein. The intra- and interassay coefficients of variation were between 5-8% and 8.5-10%, respectively. The lowest detectable concentration of each cytokine by ELISA was LIF (9 pg/ml), IL-1 (0.11 pg/ml) and IL-1Ra (15.6 pg/ml). These concentrations are similar to those reported by the manufacturer. LIF-ELISA is reported by the manufacturer to have a sensitivity of less than 8 pg/ml for both natural and recombinant human LIF and 100% specificity (no significant cross-reactivity or interference with a diversity of human and mouse cytokines and growth factors was observed). The performance characteristics for human IL-1β and IL-1Ra ELISAs reported are: 100% specificity, sensitivity 0.1 pg/ml and 14 pg/ml, respectively.

| Substance | effect on leptin-induced LIF levels in conditioned medium (Ishikawa cells) | LIF levels after leptin (HES cells) | LIF levels in conditioned medium after leptin (Ishikawa cells, leptin 3 nM) | LIF levels after leptin (primary EEC, 24 h, dose-dependent) |
| --- | --- | --- | --- | --- |
| SRNVIQISNDLENLRDLLHVLAFSKS [LPA-2, 26 amino acid peptide, residues 70-95 of helix III of the human leptin molecule; leptin peptide antagonist] | reduced LIF levels |  |  |  |
| VAEVLNRSDLIQRISFSLDLNNSKLH [LPA-2Sc, scrambled version of LPA-2, negative control, reference compound] | not different |  |  |  |
| leptin: human recombinant leptin (R&D Systems), OB-R ligand used as stimulus |  | No response | increased the levels of LIF | increased level of LIF |
